Laboratory results reported in publication PMC5586252 (2017).
Where no end group is shown, it is not given here.

B1: native Cyk4 peptide (synthetic) (peptide)
chain: LSTIDESGS
modifications: synthetic peptide; exact ends and termini not given, the printed motif 143-LSTIDESGS-151 is used as the core
B2: Cyk4 S149E/S151E peptide (synthetic, phosphomimetic) (peptide)
chain: LSTIDEEGE
B3: Cyk4 peptide S149E (peptide)
chain: NKRLSTIDEEGS
B4: GST-tagged ANKHD1 peptide (B′-binding motif) (peptide)
chain: YQPLECIVEETEGKLN
modifications: not fully specified
B5: GST-tagged KIAA1524 (CIP2A) peptide (B′-binding motif) (peptide)
chain: FQHNRKLESVAEEHEI
B6: GST-tagged C3orf67 peptide (B′-binding motif) (peptide)
chain: LSSIPEASEYDWRNYQ
B7: GST-tagged SYT16 peptide (B′-binding motif) (peptide)
chain: KLPHVLSSIAEEEHHL
B8: GST-tagged DENND2C peptide (B′-binding motif) (peptide)
chain: LETIPESEPSGMNRIL
B9: GST-tagged BUB1B peptide (B′-binding motif) (peptide)
chain: IKKLSPIIEDSREATH
B10: GST-tagged STON1 peptide (B′-binding motif) (peptide)
chain: HVLYPIPESSSDSPLA
B11: GST-tagged TJP1 peptide (B′-binding motif) (peptide)
chain: QNQFSEHDKTLYRIPE

Target: T1, B′γ1 regulatory subunit (UniProt Q13362-2 1-449)
Test: ITC

Kd	Binder
22700 nM	B1
1300 nM	B2
1590 nM	B3

Target: PP2A-B′γ1 holoenzyme (UniProt P30153 1-589; P67775 1-309; Q13362-2 1-449)
Sequence (P30153 whole entry, chain 1 of 3, other chains not shown): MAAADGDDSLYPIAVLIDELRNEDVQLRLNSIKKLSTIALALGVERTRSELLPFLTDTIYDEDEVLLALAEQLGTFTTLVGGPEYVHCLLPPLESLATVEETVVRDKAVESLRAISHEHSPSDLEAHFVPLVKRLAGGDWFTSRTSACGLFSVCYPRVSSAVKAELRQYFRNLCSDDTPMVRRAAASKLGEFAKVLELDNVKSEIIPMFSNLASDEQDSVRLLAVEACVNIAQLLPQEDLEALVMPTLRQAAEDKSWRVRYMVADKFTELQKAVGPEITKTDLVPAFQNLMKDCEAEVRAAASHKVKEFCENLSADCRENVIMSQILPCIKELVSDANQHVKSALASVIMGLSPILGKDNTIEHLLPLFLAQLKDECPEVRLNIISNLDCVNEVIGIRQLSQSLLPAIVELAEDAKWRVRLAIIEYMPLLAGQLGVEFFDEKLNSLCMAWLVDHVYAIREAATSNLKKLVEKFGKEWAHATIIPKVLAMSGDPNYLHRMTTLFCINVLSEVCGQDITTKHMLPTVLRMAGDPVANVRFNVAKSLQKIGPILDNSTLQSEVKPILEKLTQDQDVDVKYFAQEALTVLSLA
Sequence (P67775 whole entry, chain 2 of 3, other chains not shown): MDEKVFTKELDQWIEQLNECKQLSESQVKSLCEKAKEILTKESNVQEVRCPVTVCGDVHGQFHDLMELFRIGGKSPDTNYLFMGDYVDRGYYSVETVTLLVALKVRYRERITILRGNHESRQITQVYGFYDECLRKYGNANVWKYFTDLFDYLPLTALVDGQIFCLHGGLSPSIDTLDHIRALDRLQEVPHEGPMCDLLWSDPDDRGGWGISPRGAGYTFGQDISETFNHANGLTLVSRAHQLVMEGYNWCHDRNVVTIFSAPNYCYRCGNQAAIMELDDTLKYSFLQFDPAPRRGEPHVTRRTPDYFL
Test: BLI

Kd	Binder
320 nM	B4
310 nM	B5
43 nM	B6
121 nM	B7
221 nM	B8
34 nM	B9

Target: T1, B′γ1 regulatory subunit
Test: BLI

Kd	Binder
2100 nM	B4
121 nM	B5
62 nM	B6
340 nM	B7
3000 nM	B10
530 nM	B8
43 nM	B9
161 nM	B11

Target: B′α regulatory subunit (UniProt Q15172 1-486)
Sequence (Q15172 whole entry): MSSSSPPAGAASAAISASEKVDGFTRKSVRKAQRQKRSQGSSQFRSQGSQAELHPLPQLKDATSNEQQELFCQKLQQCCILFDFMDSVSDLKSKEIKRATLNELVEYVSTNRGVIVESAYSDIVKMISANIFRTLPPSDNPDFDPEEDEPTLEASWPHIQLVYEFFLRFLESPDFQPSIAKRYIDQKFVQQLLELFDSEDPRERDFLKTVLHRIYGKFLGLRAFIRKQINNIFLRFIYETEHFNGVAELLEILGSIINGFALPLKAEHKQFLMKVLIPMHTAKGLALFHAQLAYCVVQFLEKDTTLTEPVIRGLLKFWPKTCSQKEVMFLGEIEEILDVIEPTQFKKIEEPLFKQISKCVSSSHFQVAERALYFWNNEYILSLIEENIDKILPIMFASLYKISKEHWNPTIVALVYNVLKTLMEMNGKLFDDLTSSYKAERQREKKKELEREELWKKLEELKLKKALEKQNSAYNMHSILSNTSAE
Test: BLI

Kd	Binder
1090 nM	B4
330 nM	B5
450 nM	B6
197 nM	B7
11800 nM	B10
226 nM	B9
490 nM	B11
